Source: patent US9156883B2, “Binding molecules for human factor VIII and factor VIII-like proteins” (DYAX CORP., priority 1999, dated 2015)
Positions of bridges follow the written chain, without caps; N, C: chain ends. No end group written: not given here. *: point of attachment. NHNH2 = NN*

Tests used:
[1] = target: T1, REFACTO® (Homo sapiens, UniProt P00451); test: Comparative batch binding and elution of REFACTO® with regenerated immobilized ligands; conditions: target REFACTO® 100 U/ml in modified Buffer 1
T1 construct: amino acids 1-743 and 1638 through 2332 of human factor VIII; purchased Genetics Institute, Inc. (Cambridge, Mass.)
T1 sequence (P00451 20-762): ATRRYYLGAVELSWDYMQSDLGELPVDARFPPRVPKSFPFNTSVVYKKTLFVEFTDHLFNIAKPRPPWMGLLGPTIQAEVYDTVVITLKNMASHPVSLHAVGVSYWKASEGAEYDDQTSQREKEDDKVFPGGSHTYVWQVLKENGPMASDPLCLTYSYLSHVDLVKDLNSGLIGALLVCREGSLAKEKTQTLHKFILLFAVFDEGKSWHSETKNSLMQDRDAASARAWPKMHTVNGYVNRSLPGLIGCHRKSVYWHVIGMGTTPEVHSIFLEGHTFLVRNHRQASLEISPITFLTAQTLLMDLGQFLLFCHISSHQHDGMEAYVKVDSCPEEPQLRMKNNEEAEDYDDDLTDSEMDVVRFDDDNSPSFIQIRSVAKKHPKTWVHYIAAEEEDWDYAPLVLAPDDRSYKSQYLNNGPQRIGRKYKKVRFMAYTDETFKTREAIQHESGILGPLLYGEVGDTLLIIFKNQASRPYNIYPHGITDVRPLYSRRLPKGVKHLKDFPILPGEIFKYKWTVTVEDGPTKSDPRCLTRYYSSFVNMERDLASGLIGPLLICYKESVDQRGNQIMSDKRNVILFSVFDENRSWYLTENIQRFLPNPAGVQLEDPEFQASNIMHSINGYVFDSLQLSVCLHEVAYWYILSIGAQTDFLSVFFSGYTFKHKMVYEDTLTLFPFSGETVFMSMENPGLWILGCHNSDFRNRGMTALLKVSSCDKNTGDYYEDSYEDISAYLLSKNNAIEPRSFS
T1 sequence (P00451 1657-2351): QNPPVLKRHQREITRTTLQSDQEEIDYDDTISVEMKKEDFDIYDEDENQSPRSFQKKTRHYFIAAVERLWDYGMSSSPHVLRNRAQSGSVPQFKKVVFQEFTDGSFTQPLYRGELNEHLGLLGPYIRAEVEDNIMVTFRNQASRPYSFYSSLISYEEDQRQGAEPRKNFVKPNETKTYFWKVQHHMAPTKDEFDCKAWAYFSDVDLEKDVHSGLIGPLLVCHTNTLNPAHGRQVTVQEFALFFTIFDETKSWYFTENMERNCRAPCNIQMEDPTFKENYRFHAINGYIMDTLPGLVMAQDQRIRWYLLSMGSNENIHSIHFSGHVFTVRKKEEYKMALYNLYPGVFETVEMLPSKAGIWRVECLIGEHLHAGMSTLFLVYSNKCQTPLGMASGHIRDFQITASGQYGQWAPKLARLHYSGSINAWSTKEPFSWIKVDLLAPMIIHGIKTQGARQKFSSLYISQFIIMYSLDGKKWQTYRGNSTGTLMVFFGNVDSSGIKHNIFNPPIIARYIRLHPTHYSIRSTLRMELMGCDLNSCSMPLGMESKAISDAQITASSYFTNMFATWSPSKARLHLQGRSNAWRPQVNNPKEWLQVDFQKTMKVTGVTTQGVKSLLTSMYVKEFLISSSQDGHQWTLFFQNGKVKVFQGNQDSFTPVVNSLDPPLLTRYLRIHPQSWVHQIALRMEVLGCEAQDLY
Text: A commercial ELISA kit (IMUBIND fVIII ELISA kit, Product #884, American, Inc., Greenwich, Conn.) developed to detect factor VIII was used according to the manufacturer's specifications in order to detect both the REFACTO® and the nhfVIII targets. The kit employs a sandwich ELISA assay in which the target is captured by an immobilized monoclonal antibody and the captured target is detected with a second monoclonal antibody-horseradish peroxidase (HRP) conjugate. Addition of the peroxidase substrate and its subsequent reaction with the HRP produces a blue color (detected at 630 nm) which changes to yellow (detected at 450 nm) on addition of the 0.5N sulfuric acid stop solution. Color response is calibrated with factor VIII standards provided by the manufacturer.
Following the pH 2 washes, the beads were washed once in PBS containing 0.05% azide and stored at 4° C.
A sample of nhfVIII was diluted to a final concentration of 100 U/ml by addition of 2.32 ml H2O, 180 μl 1M NH4OAc, pH 6.3 (to 72 mM), and 1 μl Tween 80 (to 0.04%). REFACTO® stock solution was diluted to 100 U/ml in a modified Buffer 1, in which the NaCl concentration was reduced from […] to 330 mM.
Immobilized peptides were tested for binding to nhFVIII in comparison with REFACTO®. […] Next, nhfVIII and REFACTO® solutions were mixed with regenerated affinity beads bearing the CS-454, CS-456, and CS-458 ligands in a comparative batch purification procedure.

[2] = target: T2, factor VIII-like polypeptide (REFACTO®) (Homo sapiens, UniProt P00451); test: Affinity chromatography capture and elution of REFACTO® on immobilized peptide columns; assay type: binding; conditions: bound material eluted in the presence of ethylene glycol
T2 construct: amino acids 1-743 and 1638 through 2332 of human factor VIII; purchased Genetics Institute, Inc. (Cambridge, Mass.)
T2 sequence (P00451 20-762): T1 sequence (P00451 20-762)
T2 sequence (P00451 1657-2351): T1 sequence (P00451 1657-2351)
Description: The candidate ligands were immobilized onto a formyl-substituted ethylene glycol-methacrylate chromatographic resin (Toyopearl Formyl 650-M, pore size of ˜1000 Å; TosoHaas, Montgomeryville, Pa.). The hydrazide-containing peptides were immobilized by facilitating hydrazone bond formation, the GI-1 and -2 peptides were immobilized via reductive amination using NaCNBH3. The amount of polypeptide immobilized on the solid support was determined by quantifying the amount of free polypeptide remaining in solution. The amount of ligand immobilized per ml of resin was in the range of 0.7-1.5 μmol for the hydrazine-immobilized peptides.
The nine peptides were evaluated by affinity chromatography for their ability to capture the REFACTO® described in Example I, under specific binding and release conditions.
The factor VIII-like polypeptide (REFACTO®) was diluted in SP Buffer to a concentration of 150 μg/ml. The affinity resins (˜350 μl) were each packed into glass columns, and approximately 150 μg of the factor VIII target was applied to the prepared affinity columns at a flow rate of 200 μl/minute (linear velocity of 170 cm/hour). […] Fractions were collected and the mass and activity of recovered factor VIII-like polypeptide was determined by reversed-phase HPLC and by enzymatic assay.
For the mass determination, a standard curve with REFACTO® (0-200 μg) was generated and the amount present in each fraction was calculated according to techniques well known in the art. Reversed-phase HPLC in the presence of 20 mM EDTA was used to disrupt the REFACTO® molecule into its component subunits, which were eluted with a gradient of acetonitrile/0.01% TFA. The activity assay was a Factor IX-, X-based assay. The results for each affinity resin are set forth below (Table 6).

Row | Substance | % of Total Recovered in: Eluate [1] [%] | % of Total Recovered in: Unbound [1] [%] | % of Total Recovered in: Wash [1] [%] | capture of the factor VIII target by the affinity resin (in words) [2]
1 | AEGTGDFCWVFAFDHCHDPGPEGGGS-NHNH2 (disulfide 8-16 (inferred)) [CS-458] | 27 | 59 | 14 | –
2 | AEGTGDFGCSWLFPCPFDPGPEGGGS-NHNH2 (disulfide 9-15 (inferred)) [CS-456] | – | – | – | captured virtually all of the factor VIII target applied
3 | AEGTGDHLCGAWFRPCDADPGPEGGGS-NHNH2 (disulfide 9-16 (inferred)) [CS-454] | – | – | – | captured virtually all of the factor VIII target applied
